Experiment: yeast display, Sf9 membrane polyspecificity reagent, FACS + sequencing; frameworks hold sequencing errors
Summary of the method: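 Genes from sorted yeast were amplified by colony PCR, read by MiSeq 2 × 250 sequencing and filtered on CDR length. These cells carried a synthetic nanobody library in Saccharomyces cerevisiae BJ5465 and were sorted by FACS into low and high (top ~1%) gates on anti-HA and streptavidin fluorescence. Polyreactivity is labelled according to the gate of origin.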

Sequence | polyreactivity (PSR sort gate)
QVQLVESCGGLVQAGGSLRLSCAASGYIFLYNTMGWYRQAPWKERELVAAISFRAGSTYYADSVKGRFTISRDNAMNTVYLQMNSLKPEDTAVYYCAKRQRYYLYGHDYWGQGTQVTVSS | low polyreactivity
QVQLVESCGGLVQAGGSLRLSCAASGYIFVNYAMGWYRQAPGKQRELVARITGSGGSTDYADSVKGRFTISRDNAKNTVYLQMNSLKPEDTAVYYCNTKYVRYLRYYTYKYWGHGTQVTVSS | low polyreactivity
QVQLVESCGGLVQAGGSLRLSCAASGYTFGSNAMGWYRQAPGKERELVAAISTNGGRTNYADSVKGRFTISRDNAKNTVYLQMNSLKPEDTAVYYCNTRLRVRYYLSGFDYWGQGTQVTVSS | high polyreactivity
QVQLVESCGGLVQAGGSLRLSCAATGLTISRNVMGWYRQAPGKEREWVAAISRSGSTYYADSVKGRFTISRDNAKNTVYLQMNSLKPEDTAVYYCAKERYYTGRYSGHDYCGQGTQVTVSS | high polyreactivity
QVQLVESCGGLVQAGGSLRLSCADSGRTFGSYAMGWYRQATRKDRELVASISRSGGTTYYADSVKGRFTLSRDNAKNTVYLQMYSQKPEDTAVYYCAAQYVRYGLYYWGQGTQVTVSS | high polyreactivity
QVQLVESCGGLVQEGGSLRLSSAASGSIRYYALGWYRQAPGKESELVAAISSRGTNTYYADSVKGSITISRDNAKNTVYLQMKSQKPEDTAVYYCNAVVGLGYNYWGQGTQVSVSS | high polyreactivity
QVQLVESCGGLVQPGGSLRLSCAASGSTFTRYGFGWYRQATGKEREMVAAITTSGSSTYYADSVKGRFTISRDNAKYTVYLQMNSLKPEETAVYYGAADWSSWGFDYWGQGTQVTVSS | low polyreactivity
QVQLVESCGVLVQAGGSLRLSCDASGSIFVWNAMGWYREAPGKERELVAAIRSDDDSTYYADSVKGLFTISRDNAKNTVYLQMNCLNPEDTAVINALVDSPTFSHVKPWDGGDYWGQGTQVTVSS | low polyreactivity
QVQLVESDGGIVQAGGSLRLTCAASGIIFGYYVMGWYRQEPGKEGELVASITSGGSTNYADSVKGRFTISRDNAKNTVYLQMNSLKPEDTAVYYCAAEERTDTIACWRYPHDYWGQGTQVTVSS | low polyreactivity
QVQLVESDGGLVQAGGSLRLSCAASGSTFRYNAMGWYRQAPGKERELVAAISWGGGTPFYADSVKGRFTISRDNAKNTVYLQMNSLTPEDTAVYYCAASYRDYPWGRYYYWGQGTQVTVSS | low polyreactivity
QVQLVESEGGLVQAGGSLRLSCAASGRTFHYYAMGWYRQAPGKERELVAAISSTGGSTYYADSVKGRFTISRDNAKNTVYLQMNSLKPEDPAVYYCAARRSRGYSPTYDYWGQGTQVTVSS | high polyreactivity
QVQLVESGAGIVQAGGSLRLSCAASGYTFQHYAMGWYRQAPGKERELVAAITRRGSGTYYADSVKGRFTISRDNAKNTVYLQMNSLKPEDTAVYYCGADWYYGDEYEYWGQGTQVNVSS | high polyreactivity
QVQLVESGAGLFQAGGSLRLSCAPSGSIFAPNDMGWYRQAPGKERELVAAITSSGGRTYYADSVKGRFTISRDNAKNTVYLQMNSLKPEDTAVYYCAADHGYQYGYWGQGTHVTVSS | low polyreactivity
QVQLVESGAGLVKAGGSLRLSCAASGRSFRGNVMGWYRQAPGKEREFVAAISSSGGSTYYADSVKGRFTISRDNAKNTVYLQMNSLKPEDTAVYYCAAGGWPYSGGWFFQPNYDYWGQGTQVTVSS | low polyreactivity
QVQLVESGAGLVKAGGSLRLSSAASGSTFGEYDMGWYRQAPGKERELVASITFSAGSTDYADSVKGRFTISRDNAKNTVYLQMNSLNPEDTAVYYCAADGWWPWEYDYWGQGTQGTVSS | low polyreactivity
QVQLVESGAGLVQAAGSLRISSAHSGFSFTYNAMGWYRQAPGKVTEFVASISRSGGRTYYADSVKGRFTISRDNANNTVYLQMNSLKPEDTAVYYCAARNAYVYGMDSWGKGTQVTVSS | low polyreactivity
QVQLVESGAGLVQAGASLRLICAASGRTFPDYAMGWYRQAPGTERELVAAIYSGGGTNYADSVKGRFTISRDNAKNTVYLQMNSLKQEDTAVYYCAATGVPGWVGFDYWGQGTQVTVSS | low polyreactivity
QVQLVESGAGLVQAGGGLRLSCAASGFIFNLYAMGWYREAPGKERELVAAISSGGNTHYADSVKGRFTISRDNAKNTVYLQMNSLKPVDTAVYYCNADVNHVNKAWHVSFHQGYYWGQGTQVTVSS | low polyreactivity
QVQLVESGAGLVQAGGILRLSCAASGRIFQYNAMGWYRQAPGKEREWVAAIRRGGGSTYYADSVKGRFTISRDNAKNTVYLQMNSLKPEDTAVYYCAARRKRVSFYPEYDYWGQGTQVTVSS | low polyreactivity
QVQLVESGAGLVQAGGRLRLSCAASGFIFTRYVMGWYRQAPGKERELVAAIRRGGSTYYADSVKGRFTISRDNAKNTVYLPMNSLKPEDTAVYYCAALYAYSLTARGMEYWGQGTQVTVSS | high polyreactivity
QVQLVESGAGLVQAGGRLRLSCAASGIIFRPYAMGWYRQAPGKERELVAAITGSGVSTYYADSVKGRFTISRDNAKITVYLQMNSLKPEDTAVYYCAKRYNRCDHRYDYWGQGTQVTVSS | low polyreactivity

Sequence | polyreactivity (PSR sort gate)
QVQLVESGAGLVQAGGRLRLSCAASGRIFIRNAMGWSRQAPGKERELVAAIDSVGSTNYADSVKGRFTISRDNAKNTVYLQLNSLKPEETAVYYCAARGWKYASPYWGYYYWGQGSQVTVSS | low polyreactivity
QVQLVESGAGLVQAGGSLGLSCAPSGRIFGRYVRGWYRQAPGKERELVATITSRGGTTYYADSVKGRFTISRDNAKNTVFLQMISLKPEDTAVYYCAVRGLIRFSKYGYWGQGTQVTVSS | high polyreactivity
QVQLVESGAGLVQAGGSLLLSSAPSASTFVSYAMGWYRQAPGKERELVAAISSGGGSTYYADSVKGRFTISRDNAKNTVYLQMNILKPEDTAVYYCAARGYAYRAQYGYWGQGTQVTVSS | high polyreactivity
QVQLVESGAGLVQAGGSLRISCAASGRTFFPNAMGWYRQAPGKERELFAAISSGGGGTYYADSVKGRFTISRDNAKNTVYLQMNSLKPEDTAVYYCAARNSKVEEDGNYWGQGTQVTVSS | low polyreactivity
QVQLVESGAGLVQAGGSLRLCCAASGSIFAPYAMGWYRQAPGKERELVAAISRSGGSTYYADSVKGRFTISRDNAKNTVYLQMNSLKPEDTAVYYCADRNGLRQYRLDYWGQGTQVTVSS | high polyreactivity
QVQLVESGAGLVQAGGSLRLSCAASGFIFEINAMGWYRQAPGKERELVAVITNSGGSTYYADSVKGRFTISRDNAKYTVYLQMNSLKPEDTAVYYCAADAVHYTNDWYDYWGQGTQVTVSS | low polyreactivity
QVQLVESGAGLVQAGGSLRLSCAASGFTFAFYAMGWSRQAPGKERELVAAITGSGGSTYYADSVKGRFTISRDNAKNTVYLQMNSLIPEVTAVYYCNNYTYYSRMDYWGPGTQVTVSS | high polyreactivity
QVQLVESGAGLVQAGGSLRLSCAASGFTFDNYVMGWYRQAPGKERELVAAISKSGTSTYYADSVKGRFTISRDNAKNTVYLQMNSLKPEDTAVYYCAAALPGYGDYYYWGQGTLVTVSS | high polyreactivity
QVQLVESGAGLVQAGGSLRLSCAASGFTFDYYAMGWYRQAPGKESELVATINGASSTNYADSVKGRFTISRDNAKNTVYLQMNSLKPEDTAVYDCNARYYGPDFVLAYDYWGQGTQVTVSS | low polyreactivity
QVQLVESGAGLVQAGGSLRLSCAASGFTFNYYAMGWYRQAPGKERELVATITTSGGITYYADSVKGRFTISRDNAKNTVYLQMNSLKPEDTAVYYCAAGSYSRYLYSLYFDFDYWGQGTQVTVSS | low polyreactivity
QVQLVESGAGLVQAGGSLRLSCAASGIIIPYYVMGRYRQAPGKEMELVAAISGSGGSTYYADSVKGRFTISRDNAKYTVYLQLNSLKPEAPAVYYCARYYYQFGGYEYWGQGTQVTVSS | high polyreactivity
QVQLVESGAGLVQAGGSLRLSCAASGITFASYAMGWYRQAPGKERELVAAITWGGSRTYYADSVKGRFTISRDNAKNSVYLQMNSLKPEDTAVYYCNAHTRYGPDYSYYYWGQGSQVTVSS | high polyreactivity
QVQLVESGAGLVQAGGSLRLSCAASGITFYDNDMGWYRQPPGKERELVAGITGTTVGTYYADSVKGRFTISRDIAKNTVYLQMNSLKPEDTAVYYALLTVVVPYQYYSLSLNTLDSWGQGTQVTVSS | low polyreactivity
QVQLVESGAGLVQAGGSLRLSCAASGITFYDYAMAWYRQAPGKERELVAAISRSGITYYADSVKGRFTISRDNAKNTVYLQMNSLKPEVTAVYYCAAGRSFDQSMYYWGQGTQVTVSS | high polyreactivity
QVQLVESGAGLVQAGGSLRLSCAASGNTFGTYAMGGSRQAPGKERELVASISKRAGSTYYADSVKGRFTISRDNAKNTVYLQMNSLKPEDTAVYYCAASSWDTFDYWGQGTQVTVSS | high polyreactivity
QVQLVESGAGLVQAGGSLRLSCAASGRIFDNYVMGWYRQAPGKERELVAAISSGGGTYYADSVKGRFTISRDNAKNTVYLQMNSLKPEDTAVYYCAKRRVYDRSFGRYDYWGQGTKVTVSS | low polyreactivity
QVQLVESGAGLVQAGGSLRLSCAASGRIFERYAMGWYRQAPGKERELVAAISVSGSGTYYADSVKGRFTISRDNAKNTVYLQMNSLKPEDTAVYYCAADASLLGLFQGYDYWGQGTQVTVSS | low polyreactivity
QVQLVESGAGLVQAGGSLRLSCAASGRIFRCYAMGWYRQAPGKERELVAAIRSGGSTNYADSVKGRFTISRDNAKNTVYLQMLSLKPEDTAVYYCATQNIYRIHQSLWGWYGYWGQGTQVTVSS | low polyreactivity
QVQLVESGAGLVQAGGSLRLSCAASGRIFTKYAMGLYRQAPGKERELVAAISGSGGNTYYADSLKGRFTISRDNAKNTVYLQMNSLKPEDTAVYYCNRAKNAYLMDFWGQVTQVTVSS | high polyreactivity
QVQLVESGAGLVQAGGSLRLSCAASGRIFYPYAMGRSRQAPGKERELVAAISGRGGRTYYADSVKGRFTISRDNAKNTVYLQMKSLKPEYTAVYYCNRVVSGYPGSDYWGNGTQVTVSS | high polyreactivity

Source: the nanobody polyreactivity screen of Harvey et al. (2022)
